Measurements: article PMC4648099

Key:
[1] = molecular target: T1, thrombin (alpha-thrombin) (UniProt P00734;P00734 328-363;364-622); assay: competition (FAM fluorescence displacement); TBA-FAM Kd fixed at 15 nM; 100 mM KCl; Fluorescence assays: 10 mM sodium cacodylate pH 7.2, 100 mM KCl, 20 °C, 20 nM FAM-aptamer (100 nM thrombin in displacement); EMSA: 1xTBE pH 8.3, 100 mM KCl (ann)
[2] = molecular target: T1, thrombin (alpha-thrombin); assay: competition (FAM fluorescence displacement); fit of pair TBA-FAM/TBA; 100 mM KCl; Fluorescence assays: 10 mM sodium cacodylate pH 7.2, 100 mM KCl, 20 °C, 20 nM FAM-aptamer (100 nM thrombin in displacement); EMSA: 1xTBE pH 8.3, 100 mM KCl (ann)
[3] = molecular target: T1, thrombin (alpha-thrombin); assay: competition (FAM fluorescence displacement); fit of pair TBA-FAM/TBA-N8; 100 mM KCl; Fluorescence assays: 10 mM sodium cacodylate pH 7.2, 100 mM KCl, 20 °C, 20 nM FAM-aptamer (100 nM thrombin in displacement); EMSA: 1xTBE pH 8.3, 100 mM KCl (ann)

Binder | Kd [1] [nM] | Kd [2] [nM] | Kd [3] [nM]
GGTTGGTGTGGTTGG (structured_DNA) [TBA] | 23.7 | 15.8 | 
GGTTGGTGTGGTTGG (structured_DNA, 3' hexaethyleneglycol linker) [TBA-FAM] |  | 11.3 | 18.3
